Variants at the floor of the assay were thinned out.
B1: TPR 5TU (parent)
chain: GGAUCUUCUCGAUCUAACAAAAAAGACAAAUCUGCCACAAAGCUUGAGAGCAUCUUCGGAUGCAGAGGCGGCAGCCUUCGGUGGCGCGAUAGCGCCAACGUUCUCAACUAUGACACGCAAAACGCGUGCUCCGUUGAAUGGAGUUUAUCAUG

Variants of: B1
Experiment: polymerase ribozyme fitness, log enrichment relative to wild type (log ratio); higher = more active; in vitro selection for triplet polymerase activity
How it was run: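 One round of in vitro selection, in triplicate, was applied to PCR-built, transcribed mutant libraries of each subunit of a heterodimeric triplet polymerase ribozyme. The steps were annealing with a biotinylated primer, partner subunit and triplets, incubation frozen at −7 °C, gel excision of extended constructs, streptavidin-bead capture and RT-PCR. Fitness is the logarithm, base 2, of genotype enrichment over wild-type enrichment from inverse-variance-weighted replicate averages of Illumina-sequenced inputs and outputs, keeping genotypes with ≥10 input reads and ≥1 read per output.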

Variant	polymerase ribozyme fitness (log ratio)
C63G U78A C79U C85U A98G A106U U134C A142G U146A	≤ -4.2
G68U C85U U144A	-4.15
A64G G86U	≤ -4.2
C69U C87A G141U G143A	≤ -4.2
G68A A106C A120G A138C	≤ -4.2
G67C C87A G100A	≤ -4.2
A64C C69U G84A G136U G141U	≤ -4.2
G67U G74C C103U A121U A137C U144G	≤ -4.2
G68A C75U C85G G136U U148A	≤ -4.2
A66U G88A U145G U148C A150C	≤ -4.2
C63G G65A G71A C87A C118U U145C	≤ -4.2
G68A C123U	-3.89
G68C C99G A106G C129U	≤ -4.2
A66G C123G	≤ -4.2
A64C C85A	≤ -4.2
A66U C75G U82G A106C C116U	≤ -4.2
C63G G133U	-4.14
C69U C132G G140U	-1
A66G G83U	-3.62
G67C G80C G92A C103A C118G G133A	≤ -4.2
C69G C85U U101G	-1.25

Variant	polymerase ribozyme fitness (log ratio)
A66G C105U	-3.63
G65U G94A	≤ -4.2
G67U U146C	-2.47
C69A U104G	-3.09
G68C G84A C85A	≤ -4.2
C63G G68C	≤ -4.2
C69U C95U	-1.47
G68A U77A G81A U111A G126U	≤ -4.2
G67C A73U A91G G136A A137G	≤ -4.2
A64G C93G	-4.05
G65U A73G G141A	≤ -4.2
A64C C85A C118G A121C	≤ -4.2
C69A G117A	-0.631
G68A C93G C129A U130A	≤ -4.2
A66C G92C C96G A120G	-4.14
G68A C72U	-4.15
C69G U77C C87U G140U	≤ -4.2
C63U C85G U127A U139A U145C	≤ -4.2
C69U G70A C99A G100A	≤ -4.2
G67U U102G	≤ -4.2
C69U A119U	-1.57

Variant	polymerase ribozyme fitness (log ratio)
G68A G88C A110C U135C	≤ -4.2
C63U C75U C76U G80A U82A C108G C114U U148C	≤ -4.2
G68A C69G G80A U104G	≤ -4.2
C69A C87A A106C G140A	≤ -4.2
G68C G83U G133U A137C	≤ -4.2
C69A C76U A98U C125U	-1.9
G68A C87A A106C G117U	≤ -4.2
C69A C118G	-2.21
C69A C118U	-1.62
G67C C93G C118G A150C	≤ -4.2
C69G C72U U134A	≤ -4.2
G65C G88U A106U G140C	≤ -4.2
A66G U82G C93A	≤ -4.2
C63U A122C	-0.464
G67U C87U	-3.88
G68C C93G C131A	≤ -4.2
C69U C76U A97U U109G G112C C125A	≤ -4.2
G68U C79A U102G A119G	≤ -4.2
C63U A119U U144C	-0.319
C69A G140U	-3.21
G68A A91C A120G A147C	≤ -4.2

Variant	polymerase ribozyme fitness (log ratio)
G68C C79A G83U U101A U104C C108G A142G	≤ -4.2
A66C	-4.16
A66U	-3.46
A66G	-2.32
C63U C85U C95A	-0.621
G67C G68A G83A U90A G117A	≤ -4.2
C69G U101G G133U	-3.95
G65A C85A	-2.26
G67C G88C C116G A122U G128U U144A	≤ -4.2
A66C G84A C87U	≤ -4.2
G68A C93U	-4.04
G65C C132G	≤ -4.2
C63U C75U U82A	0.455
C69G C76G C96A A138G	≤ -4.2
A64C G71A A107G G141C	≤ -4.2
G65C C99G	≤ -4.2
G67A G84U	≤ -4.2
G65A A97G C99G	-3.75
C69A A91C A122U A142C	≤ -4.2
G68C U78C C96A A98G G143A	≤ -4.2

From the RNAGym collection of RNA variant scans (doi:10.1073/pnas.2313332121)
